Assay results as given in the supplement of paper PMC9112550, “Optimization of the antimicrobial peptide Bac7 by deep mutational scanning” (BMC Biology, 2022).

The sequences below were run on Escherichia coli TOP10 (assay: shrunken log2 fold change of peptide-encoding DNA abundance (4.5 h post-induction vs induction); higher = less antimicrobial activity (less host growth inhibition)). Details: time post-induction: 4.5 h; library: site-saturation at positions 5, 18, 19, 20.
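Further: peptides expressed intracellularly from a pBAD plasmid library in pooled LB shake-flask culture, induced with 0.3% L-arabinose, DNA abundance read by NGS, three biological replicates, DESeq2 with apeglm shrinkage.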

| Sequence | shrunken log2 fold change |
| --- | --- |
| RRIRFRPPRLPRPRPRPCQDPRP | -0.148 |
| RRIRFRPPRLPRPRPRPCRCPRP | -0.735 |
| RRIRFRPPRLPRPRPRPCRDPRP | -0.274 |
| RRIRFRPPRLPRPRPRPCRRPRP | 0.122 |
| RRIRFRPPRLPRPRPRPCTKPRP | -0.229 |
| RRIRFRPPRLPRPRPRPCVIPRP | 0.0397 |
| RRIRFRPPRLPRPRPRPCVWPRP | 0.0426 |
| RRIRFRPPRLPRPRPRPCWVPRP | -0.331 |
| RRIRFRPPRLPRPRPRPDACPRP | 0.0499 |
| RRIRFRPPRLPRPRPRPDALPRP | -0.0978 |
| RRIRFRPPRLPRPRPRPDAWPRP | 0.0823 |
| RRIRFRPPRLPRPRPRPDAYPRP | -0.147 |
| RRIRFRPPRLPRPRPRPDEAPRP | 0.0246 |
| RRIRFRPPRLPRPRPRPDEYPRP | -0.014 |
| RRIRFRPPRLPRPRPRPDFFPRP | -0.027 |
| RRIRFRPPRLPRPRPRPDFIPRP | -0.395 |
| RRIRFRPPRLPRPRPRPDFKPRP | -0.296 |
| RRIRFRPPRLPRPRPRPDGYPRP | 0.028 |
| RRIRFRPPRLPRPRPRPDHNPRP | -0.911 |
| RRIRFRPPRLPRPRPRPDHYPRP | -0.184 |
| RRIRFRPPRLPRPRPRPDKAPRP | -0.0262 |
| RRIRFRPPRLPRPRPRPDKLPRP | -0.505 |
| RRIRFRPPRLPRPRPRPDLNPRP | -0.321 |
| RRIRFRPPRLPRPRPRPDMIPRP | -0.241 |
| RRIRFRPPRLPRPRPRPDMYPRP | -0.00804 |

| Sequence | shrunken log2 fold change |
| --- | --- |
| RRIRFRPPRLPRPRPRPDNFPRP | -0.204 |
| RRIRFRPPRLPRPRPRPDPGPRP | -0.162 |
| RRIRFRPPRLPRPRPRPDPMPRP | -0.196 |
| RRIRFRPPRLPRPRPRPDQCPRP | -0.0562 |
| RRIRFRPPRLPRPRPRPDQDPRP | -0.00191 |
| RRIRFRPPRLPRPRPRPDQLPRP | 0.22 |
| RRIRFRPPRLPRPRPRPDRAPRP | 0.131 |
| RRIRFRPPRLPRPRPRPDTTPRP | 0.00968 |
| RRIRFRPPRLPRPRPRPDWSPRP | -0.214 |
| RRIRFRPPRLPRPRPRPDYKPRP | -0.492 |
| RRIRFRPPRLPRPRPRPDYWPRP | -0.142 |
| RRIRFRPPRLPRPRPRPEAEPRP | 0.684 |
| RRIRFRPPRLPRPRPRPEAPPRP | 0.529 |
| RRIRFRPPRLPRPRPRPECFPRP | 0.0331 |
| RRIRFRPPRLPRPRPRPEDTPRP | 0.144 |
| RRIRFRPPRLPRPRPRPEEPPRP | 0.248 |
| RRIRFRPPRLPRPRPRPEETPRP | 0.00709 |
| RRIRFRPPRLPRPRPRPEFRPRP | -0.0593 |
| RRIRFRPPRLPRPRPRPEGAPRP | 1.05 |
| RRIRFRPPRLPRPRPRPEHTPRP | -0.213 |
| RRIRFRPPRLPRPRPRPEHWPRP | 0.0716 |
| RRIRFRPPRLPRPRPRPEIMPRP | -0.269 |
| RRIRFRPPRLPRPRPRPELVPRP | 0.616 |
| RRIRFRPPRLPRPRPRPEPCPRP | -0.111 |
| RRIRFRPPRLPRPRPRPEPFPRP | 0.108 |

| Sequence | shrunken log2 fold change |
| --- | --- |
| RRIRFRPPRLPRPRPRPEPHPRP | 0.258 |
| RRIRFRPPRLPRPRPRPEPNPRP | 0.256 |
| RRIRFRPPRLPRPRPRPEQHPRP | 1.53 |
| RRIRFRPPRLPRPRPRPESDPRP | 0.17 |
| RRIRFRPPRLPRPRPRPESHPRP | -0.154 |
| RRIRFRPPRLPRPRPRPETFPRP | -0.0396 |
| RRIRFRPPRLPRPRPRPETMPRP | 0.0761 |
| RRIRFRPPRLPRPRPRPEVEPRP | 0.00408 |
| RRIRFRPPRLPRPRPRPEVKPRP | -0.00444 |
| RRIRFRPPRLPRPRPRPEVSPRP | -0.149 |
| RRIRFRPPRLPRPRPRPEVWPRP | 0.273 |
| RRIRFRPPRLPRPRPRPEVYPRP | 0.000414 |
| RRIRFRPPRLPRPRPRPEWGPRP | 0.186 |
| RRIRFRPPRLPRPRPRPEYIPRP | -0.0963 |
| RRIRFRPPRLPRPRPRPFDEPRP | -0.983 |
| RRIRFRPPRLPRPRPRPFDFPRP | -0.692 |
| RRIRFRPPRLPRPRPRPFDRPRP | 0.0332 |
| RRIRFRPPRLPRPRPRPFDVPRP | -0.247 |
| RRIRFRPPRLPRPRPRPFFAPRP | 0.424 |
| RRIRFRPPRLPRPRPRPFFQPRP | -0.378 |
| RRIRFRPPRLPRPRPRPFGNPRP | 0.0348 |
| RRIRFRPPRLPRPRPRPFHGPRP | 0.00193 |
| RRIRFRPPRLPRPRPRPFHVPRP | -0.546 |
| RRIRFRPPRLPRPRPRPFHYPRP | 0.0611 |
| RRIRFRPPRLPRPRPRPFLGPRP | 0.0749 |

| Sequence | shrunken log2 fold change |
| --- | --- |
| RRIRFRPPRLPRPRPRPFLRPRP | -0.313 |
| RRIRFRPPRLPRPRPRPFLSPRP | -0.167 |
| RRIRFRPPRLPRPRPRPFLVPRP | -0.426 |
| RRIRFRPPRLPRPRPRPFMHPRP | -0.147 |
| RRIRFRPPRLPRPRPRPFNGPRP | -0.163 |
| RRIRFRPPRLPRPRPRPFPIPRP | -0.184 |
| RRIRFRPPRLPRPRPRPFQLPRP | -0.0751 |
| RRIRFRPPRLPRPRPRPFRPPRP | -0.466 |
| RRIRFRPPRLPRPRPRPFSQPRP | -0.452 |
| RRIRFRPPRLPRPRPRPFTEPRP | -0.869 |
| RRIRFRPPRLPRPRPRPFTHPRP | -0.296 |
| RRIRFRPPRLPRPRPRPFWCPRP | -0.27 |
| RRIRFRPPRLPRPRPRPFWHPRP | 0.041 |
| RRIRFRPPRLPRPRPRPFYAPRP | -0.542 |
| RRIRFRPPRLPRPRPRPFYQPRP | -0.537 |
| RRIRFRPPRLPRPRPRPFYRPRP | -0.202 |
| RRIRFRPPRLPRPRPRPFYWPRP | -0.217 |
| RRIRFRPPRLPRPRPRPGASPRP | 0.109 |
| RRIRFRPPRLPRPRPRPGCVPRP | 0.15 |
| RRIRFRPPRLPRPRPRPGDRPRP | 0.151 |
| RRIRFRPPRLPRPRPRPGECPRP | -0.228 |
| RRIRFRPPRLPRPRPRPGFPPRP | 0.098 |
| RRIRFRPPRLPRPRPRPGGMPRP | -0.0381 |
| RRIRFRPPRLPRPRPRPGGRPRP | 0.323 |
| RRIRFRPPRLPRPRPRPGICPRP | -0.0925 |

| Sequence | shrunken log2 fold change |
| --- | --- |
| RRIRFRPPRLPRPRPRPGINPRP | -0.288 |
| RRIRFRPPRLPRPRPRPGKFPRP | 0.138 |
| RRIRFRPPRLPRPRPRPGMIPRP | -0.224 |
| RRIRFRPPRLPRPRPRPGMMPRP | -0.216 |
| RRIRFRPPRLPRPRPRPGMPPRP | -0.0207 |
| RRIRFRPPRLPRPRPRPGNIPRP | -0.0525 |
| RRIRFRPPRLPRPRPRPGPIPRP | 0.218 |
| RRIRFRPPRLPRPRPRPGRQPRP | 0.179 |
| RRIRFRPPRLPRPRPRPGRVPRP | 0.787 |
| RRIRFRPPRLPRPRPRPGSLPRP | -0.479 |
| RRIRFRPPRLPRPRPRPGTFPRP | -0.492 |
| RRIRFRPPRLPRPRPRPGTHPRP | 1.26 |
| RRIRFRPPRLPRPRPRPGVAPRP | 0.292 |
| RRIRFRPPRLPRPRPRPGWKPRP | 0.208 |
| RRIRFRPPRLPRPRPRPGWWPRP | -0.0573 |
| RRIRFRPPRLPRPRPRPGYKPRP | -0.438 |
| RRIRFRPPRLPRPRPRPGYNPRP | -0.332 |
| RRIRFRPPRLPRPRPRPGYSPRP | -0.934 |
| RRIRFRPPRLPRPRPRPHCAPRP | -0.17 |
| RRIRFRPPRLPRPRPRPHDNPRP | -0.392 |
| RRIRFRPPRLPRPRPRPHESPRP | -0.0515 |
| RRIRFRPPRLPRPRPRPHFQPRP | -0.261 |
| RRIRFRPPRLPRPRPRPHHTPRP | -0.597 |
| RRIRFRPPRLPRPRPRPHIAPRP | -0.532 |
| RRIRFRPPRLPRPRPRPHIVPRP | -0.0839 |

| Sequence | shrunken log2 fold change |
| --- | --- |
| RRIRFRPPRLPRPRPRPHKDPRP | -0.709 |
| RRIRFRPPRLPRPRPRPHKHPRP | -0.579 |
| RRIRFRPPRLPRPRPRPHKQPRP | -0.0759 |
| RRIRFRPPRLPRPRPRPHLDPRP | -0.275 |
| RRIRFRPPRLPRPRPRPHLPPRP | -0.0118 |
| RRIRFRPPRLPRPRPRPHMQPRP | -0.725 |
| RRIRFRPPRLPRPRPRPHPCPRP | -0.231 |
| RRIRFRPPRLPRPRPRPHPQPRP | 0.246 |
| RRIRFRPPRLPRPRPRPHQHPRP | -0.582 |
| RRIRFRPPRLPRPRPRPHQKPRP | -0.0745 |
| RRIRFRPPRLPRPRPRPHQVPRP | -0.088 |
| RRIRFRPPRLPRPRPRPHRNPRP | -0.257 |
| RRIRFRPPRLPRPRPRPHSAPRP | -0.179 |
| RRIRFRPPRLPRPRPRPHSQPRP | -0.351 |
| RRIRFRPPRLPRPRPRPHTPPRP | 1.24 |
| RRIRFRPPRLPRPRPRPHYLPRP | -0.217 |
| RRIRFRPPRLPRPRPRPICDPRP | 0.0526 |
| RRIRFRPPRLPRPRPRPICEPRP | -0.0168 |
| RRIRFRPPRLPRPRPRPICIPRP | -0.399 |
| RRIRFRPPRLPRPRPRPICRPRP | -0.0837 |
| RRIRFRPPRLPRPRPRPICVPRP | -0.161 |
| RRIRFRPPRLPRPRPRPIDYPRP | -0.155 |
| RRIRFRPPRLPRPRPRPIEEPRP | 0.0565 |
| RRIRFRPPRLPRPRPRPIFNPRP | -0.0984 |
| RRIRFRPPRLPRPRPRPIHMPRP | -0.491 |
